This passage reports Kd results from paper PMC4301871 (2015).

What is called Kd is a measure of binding affinity in units of concentration. A lower Kd goes with tighter binding.

Several values for one entry are separate records, joined by “and”; a condition that tells them apart may be missing. Equal values may be shown once.

Holding throughout (test): ITC
One test has as its target T1, LATS2 (Homo sapiens).
T1 chain: RRCPPPPYPKHL

Another test deals with T2, PTCH1-a (Homo sapiens).
T2 chain: RYSPPPPYSSHS

The target in a further test is T3, PTCH1-b (Homo sapiens).
T3 chain: EGLWPPPYRPRR

The target of a further test is T4, LATS1-a (Homo sapiens).
T4 chain: NRQPPPPYPLTA

Another test has as its target T5, LATS1-b (Homo sapiens).
T5 chain: YQGPPPPYPKHL

B1: YAP-WW1-WW2 165-271 (protein)
chain: FEIPDDVPLPAGWEMAKTSSGQRYFLNHIDQTTTWQDPRKAMLSQMNVTAPTSPPVQQNMMNSASGPLPDGWEQAMTQDGEIYYINHKNKTTSWLDPRLDPRFAMNQ
As for B1, the Kd in the test with LATS2 was 9.2 µM; in the test with PTCH1-a it was 47.4 µM and 24.7 µM; in the test with PTCH1-b, 16.9 µM; with LATS1-a, 33.4 µM.

In the case of ASGPLPDGWEQAMTQDGEIYYINHKNKTTSWLDPRLDPRFAMNQ [YAP-WW2 228-271], the Kd with LATS2 was 8.2 µM; with LATS1-b it was 33.9 µM; with PTCH1-a, 45.8 µM; with LATS1-a, 27 µM.

Take FEIPDDVPLPAGWEMAKTSSGQRYFLNHIDQTTTWQDPRKAMLSQ [YAP-WW1 165-209]: the Kd was found to be 7.1 µM with LATS2; 3.7 µM with LATS1-b; 27.6 µM with PTCH1-a; 13.2 µM with PTCH1-b; 21.5 µM with LATS1-a.
